# Laboratory results as given in IntAct's records for PubMed 22885598.
# B1: Autophagy-related protein 13 (Saccharomyces cerevisiae), Q06628 (parent)
# chain: MVAEEDIEKQVLQLIDSFFLKTTLLICSTESSRYQSSTENIFLFDDTWFEDHSELVSELPEIISKWSHYDGRKELPPLVVETYLDLRQLNSSHLVRLKDHEGHLWNVCKGTKKQEIVMERWLIELDNSSPTFKSYSEDETDVNELSKQLVLLFRYLLTLIQLLPTTELYQLLIKSYNGPQNEGSSNPITSTGPLVSIRTCVLDGSKPILSKGRIGLSKPIINTYSNALNESNLPAHLDQKKITPVWTKFGLLRVSVSYRRDWKFEINNTNDELFSARHASVSHNSQGPQNQPEQEGQSDQDIGKRQPQFQQQQQPQQQQQQQQQQQRQHQVQTQQQRQIPDRRSLSLSPCTRANSFEPQSWQKKVYPISRPVQPFKVGSIGSQSASRNPSNSSFFNQPPVHRPSMSSNYGPQMNIEGTSVGSTSKYSSSFGNIRRHSSVKTTENAEKVSKAVKSPLQPQESQEDLMDFVKLLEEKPDLTIKKTSGNNPPNINISDSLIRYQNLKPSNDLLSEDLSVSLSMDPNHTYHRGRSDSHSPLPSISPSMHYGSLNSRMSQGANASHLIARGGGNSSTSALNSRRNSLDKSSNKQGMSGLPPIFGGESTSYHHDNKIQKYNQLGVEEDDDDENDRLLNQMGNSATKFKSSISPRSIDSISSSFIKSRIPIRQPYHYSQPTTAPFQAQAKFHKPANKLIDNGNRSNSNNNNHNGNDAVGVMHNDEDDQDDDLVFFMSDMNLSKEG
# partner: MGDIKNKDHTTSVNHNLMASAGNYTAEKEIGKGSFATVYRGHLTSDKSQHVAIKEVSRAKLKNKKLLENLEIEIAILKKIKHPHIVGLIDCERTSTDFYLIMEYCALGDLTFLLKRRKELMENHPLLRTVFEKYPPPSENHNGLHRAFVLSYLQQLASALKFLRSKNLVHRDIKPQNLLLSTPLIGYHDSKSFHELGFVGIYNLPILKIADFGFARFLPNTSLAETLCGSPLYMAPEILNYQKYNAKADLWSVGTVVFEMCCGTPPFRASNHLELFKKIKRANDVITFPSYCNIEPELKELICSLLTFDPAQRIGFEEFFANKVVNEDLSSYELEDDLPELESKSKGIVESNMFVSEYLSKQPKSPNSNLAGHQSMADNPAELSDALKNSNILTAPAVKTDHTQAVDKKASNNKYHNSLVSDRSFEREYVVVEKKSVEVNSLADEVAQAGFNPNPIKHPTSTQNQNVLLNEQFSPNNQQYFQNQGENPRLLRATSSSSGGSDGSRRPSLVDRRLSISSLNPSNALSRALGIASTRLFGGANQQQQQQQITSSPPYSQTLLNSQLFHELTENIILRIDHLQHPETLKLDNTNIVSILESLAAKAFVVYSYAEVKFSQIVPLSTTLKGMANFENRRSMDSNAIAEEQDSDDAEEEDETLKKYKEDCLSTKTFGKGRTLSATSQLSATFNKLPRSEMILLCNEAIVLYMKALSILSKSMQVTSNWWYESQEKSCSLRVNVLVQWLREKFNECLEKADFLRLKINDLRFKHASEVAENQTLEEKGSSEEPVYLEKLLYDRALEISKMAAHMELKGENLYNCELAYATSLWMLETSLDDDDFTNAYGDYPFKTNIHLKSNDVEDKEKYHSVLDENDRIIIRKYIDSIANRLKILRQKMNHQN
# Variants of: B1
# Settings: with atg1_yeast ATG1, P53104
row,Variant,effect of a mutation on the interaction
1,V469A,disrupting interaction
2,F468A,disrupting interaction

# Variants of: B1
# Settings: with atg1_yeast ATG1, P53104
# Remark: another data set of the same source
row,Variant,effect of a mutation on the interaction
1,F468A,decreasing interaction
